Results as given in patent US20240010748A1.

Molecular target: murine Claudin 18.2 (mCLDN18.2) on stably-transfected HEK293 cells (murine) (UniProt P56857)
Assay: FACS on HEK293-mCLDN18.2 cells

B1: h160C9AA (antibody, human IgG1, lambda, L234A L235A, V domains shown)
VH: EVKLVESGGGLVQPGGSLKLSCAASGFTFNTYAMNWVRQAPGKGLEWVARIRSKYNNYATYYADSVKDRFTISRDDAKNTLYLQMNNLRTEDTAVYYCVRHGNFGNSYVSWFAYWGQGTLVTVSS
VL: QAVVTQEPSLTVSPGGTVTLTCRSSTGAVTTSNYANWVQQKPGQAPRGLIGGTNKRAPGTPARFSGSLLGGKAALTLSGAQPEDEAEYYCALWYSNLWVFGGGTKLTVLG
MFI (Max): 543 MFI
